# Results as given in patent US20120264231A1, “ASSAY FOR ORAI CALCIUM CHANNEL REGULATORS” (IMMUNE DISEASE INSTITUTE, INC., priority 2009, published 2012).
# Target: ORAI1 (Homo sapiens, UniProt Q96D31)
# Test: Cameleon D3 cpV/D4 cpV intravesicular Ca^2+ assay, sec6-4 vesicles with ORAI1
# Type: biochemical
# Set-up: the ORAI functional fragment is ORAI1 (65-301), ORAI1 (65-87), or full length ORAI1; made in house; host or cells: S. cerevisiae NY17 (sec6-4), isolated secretory vesicles, vector pBEVY-GU
# Experimental: In complementary measurements, vesicular Ca^2+ was monitored directly by coexpressing ORAI1 with the Ca^2+ sensor D3 cpV or D4 cpV53 fused to the α-mating factor secretion signal to target the sensor to the vesicles. Vesicles that had incorporated ORAI1 were isolated from sec6-4 yeast incubated at the restrictive temperature and were diluted into assay buffer.
# Vesicles carrying ORAI 1 were isolated from S cerevisiae strain NY1 7 according to a standard protocol (Coury, L. A., et al., Methods Enzymol 306, 169-186 (1999); Nakamoto, R. K., et al., J Biol Chem 266, 7940-7949 (1991)). Efflux of Ca^2+ elicited by STIM1^CT fragments was detected by suspending the vesicles in a buffer containing Fura-2 as principal Ca^2+ buffer, and monitoring the Fura-2 fluorescence excitation spectrum (Meyer, T., et al., Biochemistry 29, 32-37 (1990)). As a complementary approach, ORAI 1 was coexpressed with a Ca^2+ sensor cameleon D3 cpV or cameleon D4 cpV53 that was targeted to the vesicles, and changes in intravesicular [Ca^2+] were detected as changes in FRET between CFP and YFP of the sensor.
# The yeast expression vector pBEVY-GU60 allows for simultaneous expression of two transgenes by means of the bidirectional GAL1-10 promoter. The FRET-based calcium sensors D3 cpV and D4 cpV53 were fused at the N-terminus with the S. cerevisiae α-mating factor secretion signal (Bitter, G. A., et al., Proc Natl Acad Sci USA 81, 5330-5334 (1984)), which directs proteins into the secretory pathway, and introduced into pBEVY-GU in the following way. Vector pPIC9 (Invitrogen) served as template for PCR amplification of the α-mating factor secretion signal (5′ primer: […] (SEQ ID NO: 2); 3′ primer: […] (SEQ ID NO: 3)), introducing an EcoRI site at the 5′ end, and a sequence complementary to that encoding the N-terminus of the calcium sensor at the 3′ end. DNA encoding the N-terminal portion of the calcium sensor D3 cpV, comprising CFP, was amplified by PCR (5′ primer: […] (SEQ ID NO: 4); 3′ primer: […] (SEQ ID NO: 5)), introducing an SphI site followed by a stop codon and a NotI site at the 3′ end of the resulting DNA fragment. PCR-mediated fusion of the fragments representing the α-mating factor secretion signal and the sensor CFP fragment yielded αCFP, which was digested with EcoRI and NotI and subcloned into pSM703. […] Human ORAI1 was Myc-tagged at the N-terminus by PCR (5′ primer: […] (SEQ ID NO: 6); 3′ primer: […] TGGCTGCCGGGC (SEQ ID NO: 7)) and subcloned as an EcoRI-BamHI fragment into pSM703. A fragment containing Myc-ORAI1 was excised from the resulting plasmid by EcoRI digestion, blunt-ended with the Klenow fragment of DNA polymerase I, and cut with AvrII. […]
# [1] = STIM 1 cytoplasmic fragments 2 μM
# ORAI1, sequence (Q96D31 2-301): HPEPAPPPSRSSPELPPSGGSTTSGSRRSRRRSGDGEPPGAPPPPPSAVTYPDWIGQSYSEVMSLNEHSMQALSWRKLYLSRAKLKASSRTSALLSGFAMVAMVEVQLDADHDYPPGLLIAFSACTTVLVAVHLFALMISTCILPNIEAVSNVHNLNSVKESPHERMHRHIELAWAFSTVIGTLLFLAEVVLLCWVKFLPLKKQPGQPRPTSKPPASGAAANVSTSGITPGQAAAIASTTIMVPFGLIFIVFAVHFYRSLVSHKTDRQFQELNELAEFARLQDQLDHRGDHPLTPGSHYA
molecule,measurement,setting,value
"STIM1 (233-498): truncated mouse STIM1 cytoplasmic fragment, residues 233-498, His-tagged recombinant protein",vesicular Ca^2+ (cameleon FRET signal),[1],triggered substantial loss of vesicular Ca^2+
"STIM1^CT: cytoplasmic region of STIM1, mouse residues 233-685, His-tagged recombinant protein expressed in E coli",fluorescence intensity ratio F528 nm/F475 nm,"D3 cpV sensor, wildtype ORAI1, STIM^CT 2.6 μM, p<0.001",changes the ratio significantly
same,vesicular Ca^2+ (cameleon FRET signal),[1],triggered substantial loss of vesicular Ca^2+
"C[C@H](CCC(=O)O)C[C@H](C)C[C@H](C)C(=O)/C=C(\O)[C@H](C)C[C@H](C)C/C=C/[C@@H](C)[C@@H](O)[C@@H](C)[C@@H](O)C[C@@H]1CC[C@@](C)([C@H]2CC[C@@](C)([C@@H](C)O)O2)O1 [ionomycin, reference compound]",vesicular Ca^2+ (cameleon FRET signal),ionomycin 20 μM,depletion of vesicular Ca^2+
